Publication PMC2990805 (2012)

Molecular target: T1, Cyt1Aa (Bacillus thuringiensis subsp. …, UniProt P0A382)
T1 chain: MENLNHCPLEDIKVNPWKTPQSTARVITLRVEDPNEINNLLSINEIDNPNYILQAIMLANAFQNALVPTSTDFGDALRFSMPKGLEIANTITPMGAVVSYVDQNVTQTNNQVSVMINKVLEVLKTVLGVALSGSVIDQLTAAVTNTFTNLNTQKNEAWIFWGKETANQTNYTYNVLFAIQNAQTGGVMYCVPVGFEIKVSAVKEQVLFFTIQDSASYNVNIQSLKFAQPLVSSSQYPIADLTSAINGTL
Experiment: ELISA

B1: Cry4Ba (protein)
chain: NSGYPLANDLQGSMKNTNYKDWLAMCENNQQYGVNPAAINSSSVSTALKVAGAILKFVNPPAGTVLTVLSAVLPILWPTNTPTPERVWNDFMTNTGNLIDQTVTAYVRTDANAKMTVVKDYLDQYTTKFNTWKREPNNQSYRTAVITQFNLTSAKLRETAVYFSNLVGYELLLLPIYAQVANFNLLLIRDGLINAQEWSLARSAGDQLYNTMVQYTKEYIAHSITWYNKGLDVLRNKSNGQWITFNDYKREMTIQVLDILALFASYDPRRYPADKIDNTKLSKTEFTREIYTALVESPSSKSIAALEAALTRDVHLFTWLKRVDFWTNTIYQDLRFLSANKIGFSYTNSSAMQESGIYGSSGFGSNLTHQIQLNSNVYKTSITDTSSPSNRVTKMDFYKIDGTLASYNSNITPTPEGLRTTFFGFSTNENTPNQPTVNDYTHILSYIKTDVIDYNSNRVSFAWTHKIVDPNNQIYTDAITQVPAVKSNFLNATAKVIKGPGHTGGDLVALTSNGTLSGRMEIQCKTSIFNDPTRSYGLRIRYAANSPIVLNVSYVLQGVSRGTTISTESTFSRPNNIIPTDLKYEEFRYKDPFDAIVPMRLSSNQLITIAIQPLNMTSNNQVIIDRIEIIPITQSVLDETENQNLESEREVVNALFTNDAKDALNIGTTDYDIDQAANLVECISEELYPKEKMLLLDEVKNAKQLSQSRNVLQNGDFESATLGWTTSDNITIQEDDPIFKGHYLHMSGARDIDGTIFPTYIFQKIDESKLKPYTRYLVRGFVGSSKDVELVVSRYGEEIDAIMNVPADLNYLYPSTFDCEGSNRCETSAVPANIGNTSDMLYSCQYDTGKKHVVCQDSHQFSFTIDTGALDTNENIGVWVMFKISSPDGYASLDNLEVIEEGPIDGEALSRVKHMEKKWNDQMEAKRSETQQAYDVAKQAIDALFTNVQDEALQFDTTLAQIQYAEYLVQSIPYVYNDWLSDVPGMNYDIYVELDARVAQARYLYDTRNIIKNGDFTQGVMGWHVTGNADVQQIDGVSVLVLSNWSAGVSQNVHLQHNHGYVLRVIAKKEGPGNGYVTLMDCEENQEKLTFTSCEEGYITKTVDVFPDTDRVRIEIGETEGSFYIESIELICMNE
modifications: trypsin-activated Cry4Ba, proteinase K-activated Cyt1Aa
**Q.** Which Kd does the source give for B1 here?
**A.** 0.047 µM
